Test results from patent US20190160181A1 (MERSANA THERAPEUTICS, published 2019).
“And” between values parts separate entries of the source, which are not always exact repeats. Equal values may be shown once.

Key:
human NaPi2b = biological target: T1, human NaPi2b (human, UniProt O95436 1-690); assay: immunohistochemistry, human lung tumor tissue microarray
T1 construct: whole, on cells; read as O95436; Detected by immunohistochemistry in tissue sections; also called SLC34A2; NaPiIIb
T1 sequence (looked up): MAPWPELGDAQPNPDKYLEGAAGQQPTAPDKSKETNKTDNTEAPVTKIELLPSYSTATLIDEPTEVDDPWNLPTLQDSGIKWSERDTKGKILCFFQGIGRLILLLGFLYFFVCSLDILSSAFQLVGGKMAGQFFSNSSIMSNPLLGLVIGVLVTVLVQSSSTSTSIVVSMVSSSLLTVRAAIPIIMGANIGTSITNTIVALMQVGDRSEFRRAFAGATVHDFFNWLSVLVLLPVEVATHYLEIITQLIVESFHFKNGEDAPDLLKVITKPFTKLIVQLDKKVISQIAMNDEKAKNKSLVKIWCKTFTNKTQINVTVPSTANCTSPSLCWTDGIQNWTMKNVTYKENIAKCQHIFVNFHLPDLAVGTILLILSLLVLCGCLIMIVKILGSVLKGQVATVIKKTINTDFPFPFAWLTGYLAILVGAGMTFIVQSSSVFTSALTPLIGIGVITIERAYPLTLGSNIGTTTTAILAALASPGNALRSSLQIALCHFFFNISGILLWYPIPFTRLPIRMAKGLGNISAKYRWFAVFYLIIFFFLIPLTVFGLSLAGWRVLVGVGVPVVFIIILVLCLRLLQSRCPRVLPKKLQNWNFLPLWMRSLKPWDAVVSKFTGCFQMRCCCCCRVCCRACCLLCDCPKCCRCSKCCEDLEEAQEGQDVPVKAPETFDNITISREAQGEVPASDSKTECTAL
Method: An immunohistochemical assay for MERS67 was established on a Leica BondRx Instrument. The assay was performed on tissue microarrays (TMA), including NSCLC and small cell lung cancer (SCLC) cell line arrays, and a NSCLC human tumor array. Tumors in the NSCLC array had previously been classified based on morphologic features only. All arrays were scored based on the H-score method.
To characterize the primary tumors further, the tumor TMA was stained with TTF-1 and p40, markers of ACA and squamous cell carcinoma (SCC), respectively. Results of this staining were compared to MERS67 staining patterns. H-Scores in the NSCLC cell line TMA ranged from 0-260, and from 0-100 in the small cell lung carcinoma (SCLC) TMA. Within the tissue microarray, 99 individual cases were evaluable. By morphologic classification 63 cases were SCC, and 23 cases were ACA. Using an arbitrary cut point of H=50, there was a statistically significant difference in the number of NaPi2b positive ACA cases (19/23) vs SCC (3/63). FIG. 13 is a box plot of the H scores derived from MERS67 IHC comparing SCC vs ACA, when these tumors were classified by morphology only.

[1] = biological target: T2, Human cyclized NaPi2b peptide (human); assay: ELISA on plate-coated human cyclized NaPi2b peptide, one site-specific binding fit
T2 construct: also called Human NaPi2b peptide
Method: Human cyclized NaPi2b peptide were generated and lyophilized covering the amino acids identified in the XMT-1535 epitope (New England Peptide, Gardner, Mass.). For the ELISA, the lyophilized NaPi2b peptide was reconstituted in DMSO. Human NaPi2b peptide was used to coat 96-Well high binding clear ELISA plates (Corning, 3369) at 1 μg/mL in sodium carbonate buffer, pH 9 to a total volume of 100 μl per well. After a 2-hour incubation, plates were washed 4 times with 100 μl per well TBS-Tween 20, blocked with 3% BSA in TBS-Tween 20 (100 μl per well) for 1 hour, and washed again. Test articles, MERS67 (Lot U0859BH and Lot U5569BL), XMT-1535, and the non-binding control (trastuzumab) were added to the wells at a dose concentration range from 100 nM to 0.002 nM using an […] 3-fold serial dilution in TBS-Tween 20 buffer at 100 μl per well. Plates were incubated for 1 hour with rocking then washed as above. […] The Optical Density (O.D.) was measured at 450 nm with a SpectraMax M5 microplate reader (Molecular Devices, Sunnyvale, Calif.). The O.D. for each treatment was graphed, and Kd calculated for each antibody with GraphPad Prism software (GraphPad Software Inc., La Jolla, Calif.) by non-linear regression using the one site-specific binding model.

B1: MERS67 (antibody, rabbit IgG1, V domains shown)
VH: QVQLVQSGAEVVKPGASVKMSCKASGYTFTGYNIHWVKQAPGQGLEWIGAIYPGNGDTSYKQKFRGRATLTADTSTSTVYMELSSLRSEDSAVYYCARGETARATFAYWGQGTLVTVSS
VL: DIQMTQSPSSLSASVGDRVTITCSASQDIGNFLNWYQQKPGKTVKVLIYYTSSLYSGVPSRFSGSGSGTDYTLTISSLQPEDFATYYCQQYSKLPLTFGQGTKLELKR
notes: XMT-1535 variable regions joined to the rabbit IgG1 constant region and the rabbit Ig kappa-b4 C region; Two lots tested: U0859BH (one-step purification) and U5696BL (two-step purification); also called MER67; chimeric NaPi2b antibody
binding result (human NaPi2b): binds
Kd [1]: 0.256 nM and 0.104 nM
